Each block holds one binder with its values, some of them ahead of it. Side chains are listed from the residue outwards. Ends that are not written are not given here. AFM tip = not defined here
Key:
HA-Reck = biological target: T1, HA-Reck; experiment: proximity ligation assay (anti-V5/anti-HA), with against without co-expressed Gpr124
T1 construct: whole, on cells; Co-expressed with V5-tagged Wnt ligands in GPR124-/-;RECK-/- HEK293 cells for PLA
T1 sequence (O95980 23-942, species assumed, looked up): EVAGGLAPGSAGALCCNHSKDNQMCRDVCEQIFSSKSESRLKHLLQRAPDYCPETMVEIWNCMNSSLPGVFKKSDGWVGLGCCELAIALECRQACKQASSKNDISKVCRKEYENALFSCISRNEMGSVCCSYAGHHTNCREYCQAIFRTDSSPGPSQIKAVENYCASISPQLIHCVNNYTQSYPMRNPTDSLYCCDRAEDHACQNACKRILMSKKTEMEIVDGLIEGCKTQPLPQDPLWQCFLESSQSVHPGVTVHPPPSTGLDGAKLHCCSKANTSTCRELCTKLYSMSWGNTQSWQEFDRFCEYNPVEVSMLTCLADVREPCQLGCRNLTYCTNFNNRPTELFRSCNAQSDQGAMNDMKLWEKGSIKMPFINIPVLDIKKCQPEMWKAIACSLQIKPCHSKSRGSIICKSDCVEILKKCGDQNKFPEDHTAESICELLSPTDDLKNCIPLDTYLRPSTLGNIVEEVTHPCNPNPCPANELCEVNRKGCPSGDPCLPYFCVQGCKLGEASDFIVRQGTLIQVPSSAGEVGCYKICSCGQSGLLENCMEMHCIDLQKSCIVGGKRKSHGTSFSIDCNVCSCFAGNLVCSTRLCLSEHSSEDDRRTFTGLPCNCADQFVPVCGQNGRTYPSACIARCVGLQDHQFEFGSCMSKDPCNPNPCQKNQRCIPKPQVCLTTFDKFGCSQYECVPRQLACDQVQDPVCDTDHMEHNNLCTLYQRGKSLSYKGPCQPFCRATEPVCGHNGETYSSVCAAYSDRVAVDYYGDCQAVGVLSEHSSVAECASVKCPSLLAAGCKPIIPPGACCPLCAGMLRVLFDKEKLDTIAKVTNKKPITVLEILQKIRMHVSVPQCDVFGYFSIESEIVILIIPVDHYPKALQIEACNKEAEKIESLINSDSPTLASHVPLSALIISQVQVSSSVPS
Procedure: Cells were fixed with 4% paraformaldehyde for 10 min at room temperature (RT) 48 h post transfection. For immunofluorescence staining (IF), cells were blocked in 1% BSA-PBS for 30 min before being exposed to primary antibodies for 1 h at RT. After three PBS washes, cells were incubated with secondary antibodies for 1 h at RT. For anti-V5 staining of Wnt ligands, cells were additionally washes for 10 min in PBS 0.1% Tween 20 before incubation with the secondary antibody solution. For the proximity ligation assay (PLA) (Sigma-Aldrich, St. Louis, MO), cells were blocked for 30 min at 37° C. with the Blocking solution provided by the manufacturer before being incubated with the primary antibodies for 1 h at RT. Cells were washed three times and incubated with the PLA probes anti-rabbit PLUS and anti-mouse MINUS for 1 h at 37° C. […]
Although Reck appears to be the dominant Wnt7 binding determinant, its function in Wnt signaling is known to rely on its capacity to form a complex with Gpr124 through its N-terminal CK domain (Y. Zhou, J. Nathans, Dev. Cell. 31, 248-256 (2014); B. Vanhollebeke et al., Elife. 4, 1-25 (2015)), a domain that is shown herein to be additionally implicated in Wnt7a binding. […] However, a 4-fold increase in Wnt7a-V5/HA-Reck PLAs signals was detected upon co-expression of untagged Gpr124 (FIG. 1F). […]

Reck-CK-Fc [1] = biological target: T2, Reck-CK-Fc; experiment: isothermal titration calorimetry, peptide titrated into Reck-CK-Fc, 25 °C
T2 chain: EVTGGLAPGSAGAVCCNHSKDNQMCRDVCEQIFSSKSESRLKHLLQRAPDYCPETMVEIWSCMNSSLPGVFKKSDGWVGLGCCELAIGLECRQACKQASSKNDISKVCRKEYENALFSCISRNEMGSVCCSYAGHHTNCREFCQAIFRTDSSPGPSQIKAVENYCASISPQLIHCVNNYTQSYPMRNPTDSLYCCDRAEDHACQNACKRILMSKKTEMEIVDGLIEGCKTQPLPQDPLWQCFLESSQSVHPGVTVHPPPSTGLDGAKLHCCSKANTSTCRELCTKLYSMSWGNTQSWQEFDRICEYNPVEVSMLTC

Reck-CK-Fc [2] = biological target: T2, Reck-CK-Fc; experiment: single-molecule force spectroscopy (AFM tip with PEG-linked pWnt7b, surface coated with Reck-CK-Fc on protein G)
Reck-CK-Fc [3] = biological target: T2, Reck-CK-Fc; experiment: isothermal titration calorimetry with Reck-CK-Fc, 25 °C

- fold increase in PLA signal upon co-expression of untagged Gpr124 (HA-Reck): 4 fold
B1: Wnt7a-V5 (ligand)
chain: LGASIICNKIPGLAPRQRAICQSRPDAIIVIGEGSQMGLDECQFQFRNGRWNCSALGERTVFGKELKVGSREAAFTYAIIAAGVAHAITAACTQGNLSDCGCDKEKQGQYHRDEGWKWGGCSADIRYGIGFAKVFVDAREIKQNARTLMNLHNNEAGRKILEENMKLECKCHGVSGSCTTKTCWTTLPQFRELGYVLKDKYNEAVHVEPVRASRNKRPTFLKIKKPLSYRKPMDTDLVYIEKSPNYCEEDPVTGSVGTQGRACNKTAPQASGCDLMCCGRGYNTHQYARVWQCNCKFHWCCYVKCNTCSERTEMYTCK
modifications: palmitoleic acid at Serine 206 (precursor numbering)
notes: Transiently expressed in HEK293 cells; also called V5-tagged Wnt7a; full-length Wnt7a; not shown: V5 tag

- Kd (Reck-CK-Fc [1]): 7 µM
B2: pWnt7a (peptide)
peptide: VEPVRASRNKRPTFLKIKKPLSYRKPMDT
notes: Synthetic, purity over 90%; also called synthetic Wnt7a linker peptide; pWnt7a 238-266

- Kd (Reck-CK-Fc [2]): 5 µM
B3: pWnt7b peptide on the AFM tip (peptide)
peptide: VEVVRASRLRQPTFLRIKQLRSYQKPMETC([NHS‑PEG27‑maleimide linker-AFM tip])
modifications: reading uncertain
notes: Used in single-molecule force spectroscopy; also called Pep7b

- Kd (Reck-CK-Fc [3]): 1.2 µM
B4: pWnt7b (peptide)
peptide: VEVVRASRLRQPTFLRIKQLRSYQKPMET
notes: also called synthetic Wnt7b linker peptide

— patent publication US20240092848A1 (UNIVERSIT LIBRE DE BRUXELLES, published 2024)
